# Measurements reported in patent publication US6759384 (AVENTIS PHARMACEUTICALS, dated 2004).
# Like-named read-outs stand apart in the source and are kept apart here. Starred links: 1 amine or outer side, 2 acyl side, 3 side chain; linkers in the order of their positions; H or OH if unused. Non-standard residues stand in square brackets, D forms with d. No end group written: not given here. *: point of attachment. (iBu)F(pNH2) = N-alpha-isobutyl-4-amino-phenylalanine, CC(C)CN([C@@H](Cc1ccc(N[*:3])cc1)C(=O)[*:2])[*:1]; (iBu)Phe(4-NH2) = N-isobutyl-4-amino-L-phenylalanine, CC(C)CN([C@@H](Cc1ccc(N[*:3])cc1)C(=O)[*:2])[*:1]; (iBu)Phe(4-CN) = N-isobutyl-4-cyano-L-phenylalanine, CC(C)CN([C@@H](Cc1ccc(C#N)cc1)C(=O)[*:2])[*:1]; Phe(3-I,4-NH2) = 4-amino-3-iodo-L-phenylalanine, O=C([C@H](Cc1ccc(N[*:3])c(I)c1)N[*:1])[*:2]; (Chx-CH2)Y = N-(cyclohexylmethyl)-Tyr, O=C([C@H](Cc1ccc(O[*:3])cc1)N(CC1CCCCC1)[*:1])[*:2]; 4‑isoquinolinoyl = 4-isoquinolinoyl N-terminal acyl group, O=C(c1cncc2ccccc12)*; dpAph = D-4-amidinophenylalanine, N=C(N)c1ccc(C[C@@H](N[*:1])C(=O)[*:2])cc1; Phe(4-amidino) = N=C(N)c1ccc(C[C@H](N)C(=O)O)cc1; Phe(4-CONH2) = NC(=O)c1ccc(C[C@H](N)C(=O)O)cc1; 2‑pyridonyl = 2-pyridonyl N-terminal group; Phe(4-NH2) = Nc1ccc(C[C@H](N)C(=O)O)cc1; 2‑naphthylmethyl = c1ccc2cc(C*)ccc2c1; Quinaldoyl = O=C(c1ccc2ccccc2n1)*; NMeL = CN[C@@H](CC(C)C)C(=O)O; Chg = N[C@H](C(=O)O)C1CCCCC1; Nicotinoyl = O=C(c1cccnc1)*; Tfa = O=C(C(F)(F)F)*; Bz = O=C(c1ccccc1)*
# Experiments:
# [1] = target: T1, human factor Xa (Enzyme Research Laboratories, Inc.) (human, UniProt P00742 41-179; P00742 235-488, limits assumed); experiment: chromogenic FXa inhibition
# Procedure: TBS-P buffer (50 mM Tris-Cl, pH 7.8, 200 mM NaCl, 0.05% (w/v) PEG-8000, 0.02% (w/v) NaN_3) was used for this assay. The IC$50$ was determined by combining in appropriate wells of a Costar half-area microtiter plate 25 μl human factor Xa (Enzyme Research Laboratories, Inc.; South Bend Ind.) in TBS-P; 40 μl 10% (v/v) DMSO in TBS-P (uninhibited control) or various concentrations of a peptide to be tested diluted in 10% (v/v) DMSO in TBS-P; and substrate S-2765 (Nα-benzyloxycarbonyl-D-Arg-Gly-L-Arg-p-nitroanilide; Kabi Pharmacia, Inc.; Franklin Ohio) in TBS-P.
# The assays were performed by pre-incubating the peptide inhibitor plus enzyme for 10 min, then the assay was initiated by adding substrate to obtain a final volume of 100 μl. The initial velocity of chromogenic substrate hydrolysis was measured by the change in absorbance at 405 nm using a Bio-tek Instruments kinetic plate reader (Ceres UV900HDi) at 25° C. during the linear portion of the time course (usually 1–5 min after addition of substrate). The concentration of inhibitor that caused a 50% decrease in the rate of substrate hydrolysis was predicted by linear regression after plotting the relative rates of hydrolysis (compared to the uninhibited control) versus the log of the peptide concentration. The enzyme concentration was 0.5 nM and substrate concentration was 140 μM.
# [2] = target: T1, human factor Xa (Enzyme Research …); experiment: chromogenic FXa inhibition; remark: listed apart in the source
# Method in brief: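 Human FXa (0.5 nM) preincubated 10 min with inhibitor in TBS-P (pH 7.8, 200 mM NaCl, PEG-8000), then S-2765 added (140 μM). Initial hydrolysis rate read at 405 nm, 25° C.; IC50 by linear regression of relative rate vs log concentration.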
# T1 sequence (P00742 41-179 limits assumed, chain 1 of 2): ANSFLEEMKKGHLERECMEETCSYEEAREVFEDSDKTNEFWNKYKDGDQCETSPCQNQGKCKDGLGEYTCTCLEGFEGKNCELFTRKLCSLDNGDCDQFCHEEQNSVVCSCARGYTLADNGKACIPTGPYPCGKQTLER
# T1 sequence (P00742 235-488 limits assumed, chain 2 of 2): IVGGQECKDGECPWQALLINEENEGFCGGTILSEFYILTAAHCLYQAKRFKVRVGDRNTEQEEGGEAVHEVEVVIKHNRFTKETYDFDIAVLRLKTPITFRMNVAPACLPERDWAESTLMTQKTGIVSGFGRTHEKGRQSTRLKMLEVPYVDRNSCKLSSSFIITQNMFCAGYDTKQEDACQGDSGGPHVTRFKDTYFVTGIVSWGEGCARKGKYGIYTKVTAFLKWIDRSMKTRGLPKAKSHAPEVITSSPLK
Binder,Ki [1],Ki [2]
{2‑pyridonyl}-[Phe(4-NH2)][Chg]RLP-NH2 [(2-pyridonyl)Phe(pNH2)Chg-Arg-Leu-Pro-NH2],< 100 µM,
XIRLP (N-term Ac; N-(2-Me-nPentyl) on Y1; Y1=Y(SO3H); C-term NH2) [Ac-(2-Me-nPentyl)Y(SO3H)-I-R-L-P-NH2],,< 100 µM
{2‑naphthylsulfonyl}-[Phe(4-NH2)][Chg]RLP-NH2 [(2-naphthylsulfonyl)-Phe(pNH2)-Chg-Arg-Leu-Pro-NH2],< 100 µM,
"XIRLP (N-term Ac; N-(3,3-DiMe-nBu) on Y1; Y1=Y(SO3H); C-term NH2) [Ac-(3,3-DiMe-nBu)Y(SO3H)-I-R-L-P-NH2]",,< 100 µM
"XIRLP (N-term Ac; N-(Chx-CH2) on Y1; C-term NH2, also called Ac-(Chx-CH2)Tyr-Ile-Arg-Leu-Pro-NH2; Ac-(Chx-CH2)-Tyr-Ile-Arg-Leu-Pro-NH2) [Ac-(Chx-CH2)Y-I-R-L-P-NH2]",< 100 µM,< 100 µM
{5‑benzimidazolecarbonyl}-[Phe(4-NH2)][Chg]RLP-NH2 (also called (5-benzimidazoyl)-Phe(NH2)-Chg-Arg-Leu-Pro-NH2) [5-Bzim-CO-F(pNH2)-Chg-R-L-P-NH2],< 100 µM,< 100 µM
Quinaldoyl-F[Chg]RLP-NH2 (not fully specified (residue 1); printed as (2-quinolinoyl)-Phe(NH2)-Chg-Arg-Leu-Pro-NH2) [(2-quinolinoyl)-Phe(NH2)-Chg-Arg-Leu-Pro-NH2],< 100 µM,
{2‑naphthylmethyl}-[Phe(4-NH2)][Chg]RLP-NH2 (SMILES CC(C)C[C@H](NC(=O)[C@H](CCCNC(=N)N)NC(=O)[C@@H](NC(=O)[C@H](Cc1ccc(N)cc1)NCc1ccc2ccccc2c1)C1CCCCC1)C(=O)N1CCC[C@H]1C(N)=O) [(2-naphythl-CH2)Phe(pNH2)-Chg-Arg-Leu-Pro-NH2],< 100 µM,
XIRLP (N-term Tfa; N-(iBu) on Y1; C-term NH2) [Tfa-(iBu)Y-I-R-L-P-NH2],< 100 µM,< 100 µM
Ac-[(iBu)Phe(4-NH2)][Chg]RLP-NH2 (also called Ac-(iBu)-Phe(pNH2)-Chg-Arg-Leu-Pro-NH2) [Ac-(iBu)F(pNH2)-Chg-R-L-P-NH2],< 100 µM,< 100 µM
Ac-[dpAph]IRLP-NH2 [Ac-D-pAph-Ile-Arg-Leu-Pro-NH2],< 100 µM,
XIRLP (N-term Ac; N-(2-Me-nBu) on Y1; C-term NH2) [Ac-(2-Me-nBu)Y-I-R-L-P-NH2],< 100 µM,< 100 µM
XIRLP (N-term Ac; N-(Et-CH═C(CH3)-CH2) on Y1; C-term NH2) [Ac-(Et-CH═C(CH3)-CH2)Y-I-R-L-P-NH2],,< 100 µM
"XIRLP (N-term Ac; N-(3,3-DiMe-nBu) on Y1; C-term NH2) [Ac-(3,3-DiMe-nBu)Y-I-R-L-P-NH2]",,< 100 µM
XIRLP (N-term Ac; N-(Et-CH═C(CH3)-CH2) on Y1; Y1=Y(SO3H); C-term NH2) [Ac-(Et-CH═C(CH3)-CH2)Y(SO3H)-I-R-L-P-NH2],,< 100 µM
"XIRLP (N-term Ac; N-(3,5,5-Me-3-nHexyl) on Y1; C-term NH2) [Ac-(3,5,5-Me-3-nHexyl)Y-I-R-L-P-NH2]",,< 100 µM
XIRLP (N-term Ac; N-(2-Me-Bzl) on Y1; C-term NH2) [Ac-(2-Me-Bzl)Y-I-R-L-P-NH2],,< 100 µM
"XIRLP (N-term Ac; N-(2-Me-nPentyl) on Y1; C-term NH2, also called Ac-(CH3CH2CH2CH(CH3)CH2)-Y-I-R-L-P-NH2) [Ac-(2-Me-nPentyl)Y-I-R-L-P-NH2]",< 100 µM,< 100 µM
"XIRLP (N-term Ac; N-(3,3-DiMe-nPentyl) on Y1; Y1=Y(SO3H); C-term NH2) [Ac-(3,3-DiMe-nPentyl)Y(SO3H)-I-R-L-P-NH2]",,< 100 µM

Binder,Ki [1],Ki [2]
XIRLP (N-term Ac; N-(2-Me-Bzl) on Y1; Y1=Y(SO3H); C-term NH2) [Ac-(2-Me-Bzl)Y(SO3H)-I-R-L-P-NH2],,< 100 µM
Nicotinoyl-[Phe(4-NH2)][Chg]RLP-NH2 (SMILES CC(C)C[C@H](NC(=O)[C@H](CCCNC(=N)N)NC(=O)[C@@H](NC(=O)[C@H](Cc1ccc(N)cc1)NC(=O)c1cccnc1)C1CCCCC1)C(=O)N1CCC[C@H]1C(N)=O) [(3-pyridoyl)-Phe(pNH2)-Chg-Arg-Leu-Pro-NH2],< 100 µM,
Ac-[(iBu)Phe(4-CN)][Chg]RLP-NH2 [Ac-(iBu)Phe(pCN)-Chg-Arg-Leu-Pro-NH2],< 100 µM,
{2‑methylbenzyl}-[Phe(4-NH2)][Chg]RLP-NH2 [(2-methylbenzyl)-Phe(pNH2)-Chg-Arg-Leu-Pro-NH2],< 100 µM,
Ac-[Phe(4-NH2)][Chg]R[NMeL]P-NH2 (SMILES CC(=O)N[C@@H](Cc1ccc(N)cc1)C(=O)N[C@H](C(=O)N[C@@H](CCCNC(=N)N)C(=O)N(C)[C@@H](CC(C)C)C(=O)N1CCC[C@H]1C(N)=O)C1CCCCC1) [Ac-Phe(pNH2)-Chg-Arg-(Me)Leu-Pro-NH2],< 100 µM,
XIRLP (N-term Ac; N-(Cyclopropyl-CH2) on Y1; C-term NH2) [Ac-(Cyclopropyl-CH2)Y-I-R-L-P-NH2],,< 100 µM
XIRLP (N-term Ac; N-(2-Me-nBu) on Y1; Y1=Y(SO3H); C-term NH2) [Ac-(2-Me-nBu)Y(SO3H)-I-R-L-P-NH2],,< 100 µM
"Ac-[Phe(4-CONH2)][Chg]RLP-NH2 (SMILES CC(=O)N[C@@H](Cc1ccc(C(N)=O)cc1)C(=O)N[C@H](C(=O)N[C@@H](CCCNC(=N)N)C(=O)N[C@@H](CC(C)C)C(=O)N1CCC[C@H]1C(N)=O)C1CCCCC1, also called Ac-Phe(pCONH2)-Chg-R-L-P-NH2; Ac-Phe(p-CONH2)-Chg-Arg-Leu-Pro-NH2) [Ac-F(pCONH2)-Chg-R-L-P-NH2]",< 100 µM,< 100 µM
"Ac-W[Chg]RLP-NH2 (SMILES CC(=O)N[C@@H](Cc1c[nH]c2ccccc12)C(=O)N[C@H](C(=O)N[C@@H](CCCNC(=N)N)C(=O)N[C@@H](CC(C)C)C(=O)N1CCC[C@H]1C(N)=O)C1CCCCC1, also called Ac-Trp-Chg-Arg-Leu-Pro-NH2) [Ac-W-Chg-R-L-P-NH2]",< 100 µM,< 100 µM
[dY][Chg]RLP-NH2 (also called D-Tyr-Chg-Arg-Leu-Pro-NH2) [y-Chg-R-L-P-NH2],< 100 µM,< 100 µM
Tfa-Y[Chg]RLP-NH2 [Tfa-Y-Chg-R-L-P-NH2],< 100 µM,< 100 µM
Ac-[(Chx-CH2)Y][Chg]RLP-NH2 [Ac-(Chx-CH2)Tyr-Chg-Arg-Leu-Pro-NH2],< 100 µM,
"Bz-[Phe(4-NH2)][Chg]RLP-NH2 (SMILES CC(C)C[C@H](NC(=O)[C@H](CCCNC(=N)N)NC(=O)[C@@H](NC(=O)[C@H](Cc1ccc(N)cc1)NC(=O)c1ccccc1)C1CCCCC1)C(=O)N1CCC[C@H]1C(N)=O, also called Bz-F(pNH2)-Chg-R-L-P-NH2) [(Benzoyl)-Phe(pNH2)-Chg-Arg-Leu-Pro-NH2]",< 100 µM,
{4‑isoquinolinoyl}-[Phe(4-NH2)][Chg]RLP-NH2 (SMILES CC(C)C[C@H](NC(=O)[C@H](CCCNC(=N)N)NC(=O)[C@@H](NC(=O)[C@H](Cc1ccc(N)cc1)NC(=O)c1cncc2ccccc12)C1CCCCC1)C(=O)N1CCC[C@H]1C(N)=O) [(4-isoquinolinoyl)-Phe(pNH2)-Chg-Arg-Leu-Pro-NH2],< 100 µM,
XIRLP (N-term Ac; N-(Cyclopropyl-CH2) on Y1; Y1=Y(SO3H); C-term NH2) [Ac-(Cyclopropyl-CH2)Y(SO3H)-I-R-L-P-NH2],,< 100 µM
"Ac-[Phe(3-I,4-NH2)][Chg]RLP-NH2 (SMILES CC(=O)N[C@@H](Cc1ccc(N)c(I)c1)C(=O)N[C@H](C(=O)N[C@@H](CCCNC(=N)N)C(=O)N[C@@H](CC(C)C)C(=O)N1CCC[C@H]1C(N)=O)C1CCCCC1) [Ac-Phe(3I,4NH2)-Chg-Arg-Leu-Pro-NH2]",< 100 µM,
Ac-[Phe(4-amidino)]IRLP-NH2 (SMILES CC[C@H](C)[C@H](NC(=O)[C@H](Cc1ccc(C(=N)N)cc1)NC(C)=O)C(=O)N[C@@H](CCCNC(=N)N)C(=O)N[C@@H](CC(C)C)C(=O)N1CCC[C@H]1C(N)=O) [Ac-pAph-I-R-L-P-NH2],< 100 µM,< 100 µM
"Tfa-[(iBu)F(pNH2)][Chg]RLP-NH2 (SMILES CC(C)C[C@H](NC(=O)[C@H](CCCNC(=N)N)NC(=O)[C@@H](NC(=O)[C@H](Cc1ccc(N)cc1)N(CC(C)C)C(=O)C(F)(F)F)C1CCCCC1)C(=O)N1CCC[C@H]1C(N)=O, also called CF3C(O)-(iBu)Phe(NH2)-Chg-Arg-Leu-Pro-NH2) [Tfa-(iBu)F(pNH2)-Chg-R-L-P-NH2]",< 100 µM,< 100 µM
"Ac-[Phe(4-NH2)][Chg]RLP-NH2 (SMILES CC(=O)N[C@@H](Cc1ccc(N)cc1)C(=O)N[C@H](C(=O)N[C@@H](CCCNC(=N)N)C(=O)N[C@@H](CC(C)C)C(=O)N1CCC[C@H]1C(N)=O)C1CCCCC1, also called Ac-Phe(pNH2)-Chg-Arg-Leu-Pro-NH2) [Ac-F(pNH2)-Chg-R-L-P-NH2]",< 100 µM,< 100 µM
